Substrate: C=C(O[C@@H]1C=C(C(=O)O)C=C[C@H]1O)C(=O)O
Assay: enzyme kinetics, triplicate
Type: biochemical, Saccharomyces cerevisiae
Conditions: pH 6.5 or 7.5, 22 °C, 150 mM NaCl
Text: enzyme kinetics, triplicate on chorismate mutase (CM) | a similar mutation (E219A)

B1: chorismate mutase (CM) (Saccharomyces cerevisiae S288C; E219A) (protein)
chain: MDFTKPETVLNLQNIRDELVRMEDSIIFKFIERSHFATCPSVYEANHPGLEIPNFKGSFLDWALSNLEIAHSRIRRFESPDETPFFPDKIQKSFLPSINYPQILAPYAPEVNYNDKIKKVYIEKIIPLISKRDGDDKNNFGSVATRDIECLQSLSRRIHFGKFVAEAKFQSDIPLYTKLIKSKDVEGIMKNITNSAVEEKILERLTKKAEVYGVDPTNASGERRITPEYLVKIYKEIVIPITKEVEVEYLLRRLEE
notes: TEV-cleavable tagged CM in pET21a, E. coli BL21*(DE3); 60 kDa homodimer
- Km: 0.6 ± 0.2 mM
